The values that follow come from article doi:10.1101/2020.05.04.076190.

This data set deals with MycWT bHLH-LZ;Max bHLH-LZ (p21 isoform) (human?;, UniProt P01106;P61244 ;, |). Briefly: EMSA. On the technique in general: In EMSA bound probe runs differently from free probe, usually more slowly.

B1: CACGTG E-box probe (dsDNA)
DNA 1: GCGCGGGCACGTGGGCCGGGG
DNA 2: CCCCGGCCCACGTGCCCGCGC
As to B1, the binding result is “binds”.
